# Results from patent US20240018189A1 (PROTAGONIST THERAPEUTICS, published 2024).
# Starred links: 1 amine or outer side, 2 acyl side, 3 side chain; linkers in the order of their positions; H or OH if unused. Positions of bridges follow the written chain, without caps; N, C: chain ends. Non-standard residues stand in square brackets, D forms with d. Groups on a side chain read outwards from the residue. Chains are numbered I, II in the order given. No end group written: not given here. *: point of attachment. PEG12 = NCCOCCOCCOCCOCCOCCOCCOCCOCCOCCOCCOCCOCCC(=O)O; Phe(4-tBu) = CC(C)(C)c1ccc(C[C@H](N)C(=O)O)cc1; Pro(4Amino) = proline with a 4-amino group; Dip = N[C@H](C(=O)O)C(c1ccccc1)c1ccccc1; γGlu = O=C(O)[C@H](CCC(=O)[*:2])N[*:1]; Palmitoyl = CCCCCCCCCCCCCCCC(=O)*; 2Pal = N[C@@H](Cc1ccccn1)C(=O)O; β3hF = N[C@H](CC(=O)O)Cc1ccccc1; Cit = NC(=O)NCCC[C@H](N)C(=O)O; NMeL = CN[C@@H](CC(C)C)C(=O)O; Isovaleryl = CC(C)CC(=O)*; Npc = nipecotic acid; Ahx = NCCCCCC(=O)O; βAla = NCCC(=O)O; Sar = CNCC(=O)O
# T1: human ferroportin (SLC40A1) fused in frame with GFP (human) (UniProt Q9NP59)
# T1 sequence (looked up): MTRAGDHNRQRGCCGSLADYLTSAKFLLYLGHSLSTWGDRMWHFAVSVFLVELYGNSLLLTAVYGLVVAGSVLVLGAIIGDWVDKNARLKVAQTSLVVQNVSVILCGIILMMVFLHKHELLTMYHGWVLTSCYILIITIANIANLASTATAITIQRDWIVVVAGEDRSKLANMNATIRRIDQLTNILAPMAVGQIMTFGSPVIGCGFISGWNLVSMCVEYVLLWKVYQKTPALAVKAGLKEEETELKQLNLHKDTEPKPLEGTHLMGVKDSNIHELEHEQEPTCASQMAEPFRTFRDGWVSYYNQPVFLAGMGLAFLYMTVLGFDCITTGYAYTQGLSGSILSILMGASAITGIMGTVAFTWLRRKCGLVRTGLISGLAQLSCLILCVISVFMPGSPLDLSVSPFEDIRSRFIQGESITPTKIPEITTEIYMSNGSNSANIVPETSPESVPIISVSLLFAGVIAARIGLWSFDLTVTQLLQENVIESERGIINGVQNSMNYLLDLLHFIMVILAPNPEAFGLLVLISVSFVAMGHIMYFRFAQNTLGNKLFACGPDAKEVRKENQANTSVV
# B1: Seq. No. 328 (peptide)
# peptide: Isovaleryl-DTH[Dip][Npc]CI[dK][Phe(4-tBu)][dK]CK([PEG12-Palmitoyl])-NH2
# modifications: disulfide 6-11 (inferred)
# B2: Seq. No. 326 (peptide)
# peptide: DTHXPCIKXKC
# modifications: N-term isovaleric acid; 4 Dpa; 8 (D)Lys; 9 bhPhe; 10 Lys(Ac); C-term NH2
# B3: Compd. ID 34 (peptide)
# peptide: Isovaleryl-DTH[Dip]PCI[dK][β3hF]K([PEG12-Palmitoyl])PRSK[Sarc]C-NH2
# modifications: disulfide 6-16 (inferred)
# B4: Compd. ID 33 (peptide)
# peptide: DTHXPCIKXKPRSKC
# modifications: N-term isovaleric acid; 4 Dpa; 8 (D)Lys; 9 bhPhe; 10 Lys(2Peg11′_Palm); C-term NH2
# B5: Compd. ID 38 (peptide)
# peptide: DTHXPCIKXKKC
# modifications: N-term isovaleric acid; 4 Dpa; 8 (D)Lys; 9 bhPhe; 10 Lys(Lys[Peg11_Palm]2); 11 (D)Lys; C-term NH2
# B6: Compd. ID 31 (peptide)
# peptide: Isovaleryl-DTH[Dip]PCI[Pro(4Amino)][β3hF]K([Ahx-Palmitoyl])[dK]C-NH2
# modifications: disulfide 6-12 (inferred)
# B7: Compd. ID 40 (peptide)
# peptide: DTHXPCIKXKKC
# modifications: N-term isovaleric acid; 4 Dpa; 8 (D)Lys; 9 bhPhe; 10 Lys(Ahx_Ahx_Ahx_Palm); 11 (D)Lys; C-term NH2
# B8: Compd. ID 41 (peptide)
# peptide: DTHXPCIKXKKC
# modifications: N-term isovaleric acid; 4 Dpa; 8 (D)Lys; 9 bhPhe; 10 Lys(2Peg11′_Peg11_Palm); 11 (D)Lys; C-term NH2
# B9: Compd. ID 30 (peptide)
# peptide: Isovaleryl-DTH[Dip]PCI[Cit][β3hF]K([Ahx-Palmitoyl])[dK]C-NH2
# modifications: disulfide 6-12 (inferred)
# B10: Compd. ID 214 (peptide)
# peptide: Isovaleryl-DTHFPCIK(Ac)FK([PEG12-Palmitoyl])PK(Ac)SK(Ac)[Sar]CK-NH2
# modifications: disulfide 6-16 (inferred)
# B11: Compd. ID 36 (peptide)
# peptide: DTHXPCIKXKKC
# modifications: N-term isovaleric acid; 4 Dpa; 8 (D)Lys; 9 bhPhe; 10 Lys(2Peg11′_Sarc_Palm); 11 (D)Lys; C-term NH2
# B12: Seq. No. 323 (peptide)
# peptide: Isovaleryl-DTH[Dip]PCI[βAla][β3hF][dK]C-NH2
# modifications: disulfide 6-11 (inferred)
# B13: Compd. ID 44 (peptide)
# peptide: DTHXPCIKXKKC
# modifications: N-term isovaleric acid; 4 Dpa; 8 (D)Lys; 9 bhPhe; 10 Lys(2Peg11′_KKK_Palm); 11 (D)Lys; C-term NH2
# B14: Compd. ID 244 (peptide)
# peptide: Isovaleryl-DTHFPC[NMeL]K([γGlu-Palmitoyl])FEPRSKGCK-NH2
# modifications: disulfide 6-16 (inferred)
# B15: Compd. ID 219 (peptide)
# peptide: Isovaleryl-DTHFPCIK([γGlu-Palmitoyl])FEPR
# B16: Compd. ID 201 (peptide)
# peptide: Isovaleryl-DTH[Dip]PC[NMeL][dK][β3hF]K([Ahx-Palmitoyl])[dK]C-NH2
# modifications: disulfide 6-12 (inferred); not fully specified
# B17: Compd. ID 205 (peptide)
# peptide: DTHFPCIKXKKC
# modifications: N-term isovaleric acid; 8 (D)Lys; 9 bhPhe; 10 Lys(Palm); C-term NH2
# B18: Seq. No. 324 (peptide)
# peptide: Isovaleryl-DTH[Dip]PCI[β3hF][dK]C-NH2
# modifications: disulfide 6-10 (inferred)
# B19: Compd. ID 5 (peptide)
# peptide: DTHXPCIKXKC
# modifications: N-term isovaleric acid; 4 Dpa; 8 Lys[Ahx-isoGlu-Palm]; 9 bhPhe; 10 (D)Lys; C-term NH2
# B20: Seq. No. 330 (peptide)
# peptide: Isovaleryl-DTH[Dip]PCI[β3hF]K([PEG12-Palmitoyl])[dK]C-NH2
# modifications: disulfide 6-11 (inferred)
# B21: Compd. ID 203 (peptide)
# peptide: DTHFPCIKXKKC
# modifications: not fully specified; N-term isovaleric acid; 4 MePhe; 8 (D)Lys; 9 bhPhe; 10 Lys(Ahx_Palm); 11 (D)Lys; C-term NH2
# B22: Compd. ID 4 (peptide)
# peptide: Isovaleryl-DTH[Dip][Npc]CI[dK][β3hF]K([Ahx-Palmitoyl])[dK]C-NH2
# modifications: disulfide 6-12 (inferred)
# B23: Compd. ID 8 (peptide)
# peptide: DTHXPCIKXKC
# modifications: N-term isovaleric acid; 4 Dpa; 8 Lys[Ahx-Behenic_Acid]; 9 bhPhe; 10 (D)Lys; C-term NH2
# B24: Compd. ID 39 (peptide)
# peptide: DTHXPCIKXKKC
# modifications: N-term isovaleric acid; 4 Dpa; 8 (D)Lys; 9 bhPhe; 10 Lys(Ahx_Ahx_Palm); 11 (D)Lys; C-term NH2
# B25: Compd. ID 253 (peptide)
# peptide: DTHXPCIKXKKC
# modifications: N-term isovaleric acid; 4 Dpa; 8 (D)Lys(PEG12_OMe); 9 bhPhe; 10 Lys(1PEG2_1PEG2_IsoGlu_C18_Diacid); 11 (D)Lys(PEG12_OMe); C-term NH2
# B26: Seq. No. 317 (peptide)
# peptide 1: Isovaleryl-DTHFPCIK([γGlu-Palmitoyl])FEPR
# peptide 2: SKGCK-NH2
# modifications: disulfide I:6-II:4
# B27: Seq. No. 320 (peptide)
# peptide: Isovaleryl-DTH[Dip]PCIK([Ahx-Palmitoyl])[2Pal]C-NH2
# modifications: disulfide 6-10 (inferred)
# B28: Compd. ID 35 (peptide)
# peptide: Isovaleryl-DTH[Dip]PCI[dK][β3hF]K([PEG12-Palmitoyl])P[dK]S[dK][Sarc]C[dK]-NH2
# modifications: disulfide 6-16 (inferred)
# B29: Seq. No. 321 (peptide)
# peptide: DTHXPCIKXKC
# modifications: N-term isovaleric acid; 4 Dpa; 8 Lys(Ahx_Palm); 9 2Pal; 10 (D)Lys; C-term NH2
# B30: Compd. ID 6 (peptide)
# peptide: DTHXPCIKXKC
# modifications: N-term isovaleric acid; 4 Dpa; 8 Lys[isoGlu-Palm]; 9 bhPhe; 10 (D)Lys; C-term NH2
# B31: Compd. ID 206 (peptide)
# peptide: Isovaleryl-DTH[Dip]PCI[β3hF]K([Ahx-Palmitoyl])[dK]C-NH2
# modifications: disulfide 6-11 (inferred)
# B32: Compd. ID 45 (peptide)
# peptide: DTHXPCIKXKKC
# modifications: N-term isovaleric acid; 4 Dpa; 8 (D)Lys; 9 bhPhe; 10 Lys(2Peg11′_KKKGS_Palm); 11 (D)Lys; C-term NH2
# B33: Seq. No. 325 (peptide)
# peptide: DTHXPCIKXKC
# modifications: N-term isovaleric acid; 4 Dpa; 8 (D)Lys(Ac); 9 bhPhe; 10 Lys(Ac); C-term NH2
# B34: Compd. ID 2 (peptide)
# peptide: DTHXPCIKXKRC
# modifications: N-term isovaleric acid; 4 Dpa; 8 (D)Lys; 9 bhPhe; 10 Lys(Ahx-Palm); C-term NH2
# B35: Compd. ID 42 (peptide)
# peptide: DTHXPCIKXKKC
# modifications: N-term isovaleric acid; 4 Dpa; 8 (D)Lys; 9 bhPhe; 10 Lys(1Peg2_1Peg2_IsoGlu_C18_Diacid); 11 (D)Lys; C-term NH2
# B36: Compd. ID 37 (peptide)
# peptide: DTHXPCIKXKKC
# modifications: N-term isovaleric acid; 4 Dpa; 8 (D)Lys; 9 bhPhe; 10 Lys(2Peg11′_Ahx_Palm); 11 (D)Lys; C-term NH2
# B37: Compd. ID 43 (peptide)
# peptide: DTHXPCIKXKKC
# modifications: N-term isovaleric acid; 4 Dpa; 8 (D)Lys; 9 bhPhe; 10 Lys(1Peg2_1Peg2_Ahx_C18_Diacid); 11 (D)Lys; C-term NH2
# B38: Seq. No. 327 (peptide)
# peptide: DTHXPCIKXKKC
# modifications: N-term isovaleric acid; 4 Dpa; 8 (D)Lys; 9 bhPhe; 11 (D)Lys; C-term NH2
# B39: Compd. ID 216 (peptide)
# peptide: Isovaleryl-DTHFPCLK([γGlu-Palmitoyl])FEPRSKGCK-NH2
# modifications: disulfide 6-16 (inferred)
# B40: Compd. ID 218 (peptide)
# peptide: Isovaleryl-DTHFPCIK([γGlu-Palmitoyl])FEPRSKGC
# modifications: disulfide 6-16 (inferred)
# Target: T1, human ferroportin (SLC40A1) fused in frame with GFP (human)
# Test: cell-based or functional assay
Binder,IC50: FPN internalisation,FPN EC50
B1,16.5 nM,–
B2,95.7 nM,–
B3,–,23.6 nM
B4,–,25.4 nM
B5,–,33 nM
B6,–,18 nM
B7,–,18.5 nM
B8,–,18.5 nM
B9,–,26.6 nM
B10,–,7.19 nM
B11,–,10.9 nM
B12,10.6 nM,–
B13,–,37.9 nM
B14,–,9.59 nM
B15,–,12.6 nM
B16,–,12.5 nM
B17,–,4.23 nM
B18,23.3 nM,–
B19,–,0.75 nM
B20,6.93 nM,–

Binder,IC50: FPN internalisation,FPN EC50
B21,–,28 nM
B22,–,6.35 nM
B23,–,550 nM
B24,–,19.3 nM
B25,–,> 3000 nM
B26,13.7 nM,–
B27,9.72 nM,–
B28,–,23.1 nM
B29,21.7 nM,–
B30,–,6.16 nM
B31,–,10.8 nM
B32,–,24.5 nM
B33,37.8 nM,–
B34,–,11.8 nM
B35,–,1700 nM
B36,–,19.6 nM
B37,–,283 nM
B38,142 nM,–
B39,–,16.6 nM
B40,–,15.6 nM
